Results on 7 molecules are retold here after patent US20160046680A1, “RADIOTRACER IMAGING USING SODIUM IODIDE SYMPORTER POLYPEPTIDES” (MAYO FOUNDATION FOR MEDICAL EDUCATION AND RESEARCH, priority 2013, published 2016).

Data set [1] relates to endogenous NIS expressing organs (thyroid and stomach) and heterologous NIS expressing tumor cells. Description: Dual isotope SPECT/CT imaging of nude mice with BXPC-3-hNIS tumors. The following applies: four hours after i.p. administration of 250 μCi each. How it is done: FIG. 6. SPECT/CT dual isotope imaging of nude mice implanted with SQ BXPX-3-hNIS tumors. Animals were injected i.p with 250 μCi ^125I and 250 μCi ^99mTc and imaged four hours later. Images were processed using Vivo Quant software. The scale was adjusted manually to get minimal yellow in the tissues.
The stomach and thyroid signals were subtract from the SPECT dataset (FIG. 5). In this experiment, nude female mice (5-week of age) were injected with 3×10^6 BXPC-3-hNIS cells. When tumors reached a diameter of 1 cm, mice were injected I.P. with ^125I sodium iodide (250 μCi) and/or ^99mTc-pertechneate (250 μCi). Four hours post isotope administration, SPECT/CT data were acquired with U-SPECT-II (MiLabs). […] Radioiodide thyroid signal subtraction was performed by normalizing the ^125I SPECT data to thyroid tissue on the ^99mTc SPECT data using the image arithmetic tools available in PMOD image fusion software. This was performed in three steps by (1) calculating the normalization factor (i.e., the inverse ratio between the maximum voxel value corresponding to the thyroid tissue on the ^125I SPECT and the maximum voxel value corresponding to the thyroid tissue on the ^99mTc SPECT data set), (2) multiplying each voxel in the ^125I SPECT dataset by this normalization factor, and (3) subtracting the normalized ^125I SPECT dataset from ^99mTc SPECT data set to generate a thyroid subtraction SPECT dataset (FIG. 5C). Similarly, ^99mTc stomach signal subtraction was performed by (1) calculating the normalization factor which in this case is the inverse ratio of the maximum voxel value corresponding to the stomach tissue on the ^99mTc SPECT to the maximum voxel value corresponding to the stomach tissue in the ^125I SPECT data set, (2) multiplying each voxel in the ^99mTc SPECT dataset by this normalization factor, and (3) subtracting the normalized ^99mTc SPECT dataset from ^125I SPECT data set to generate a stomach subtraction SPECT dataset (FIG. 5B).

In data set [2] the test system is stomach signal from NIS polypeptide-mediated uptake of radioisotopes. The following applies: mouse fed by gavage, then imaged; NIS transduced liver.
From the text: FIG. 2B is a photograph of the same mouse fed oral contrast agent.
For data set [3], the system named is NIS expressing cells. The following applies: cited from earlier work.
In data set [4] the test system is Mel624 cells. Description: Radiotracer uptake assay in Mel624 cells stably expressing NIS polypeptides. It counts as cell-based. The following applies: for Uptake of pertechnetate (Technetium-99m) / Uptake of radioiodide (Iodine-125): Mel624 cells expressing the NIS polypeptide, 1 hour at 37° C., +/- 300 μM KClO4. How it is done: Mel624 cells stably expressing a wild-type human NIS polypeptide (Mel-NIS) or one of two mutant NIS polypeptides (Mel-NIS-93E or Mel-NIS-93Q) were plated in 96-well plates at a density that would lead them to confluency on the day of the uptake assay. 1×Hank's balanced salt solution with calcium, magnesium (HBSS) (Cellgro) and 1 mM HEPES was adjusted to pH 7.3 using KOH (HBBS-HEPES) on the day of the assay. Culture medium was removed from the cells, and 150 μL of HBSS-HEPES+/−300 μM KClO4 was added to the wells. The cells were incubated for 10 minutes at room temperature prior to the addition of radiotracer. Radiotracers, ^125I and ^99mTc, were diluted in HBSS-HEPES to about 70,000 to 100,000 CPM/25 μL (CPM, counts per minute). 25 μL of radiotracer was added to the cells in HBSS-HEPES+/−KClO4, and the cells were incubated at 37° C. for 1 hour. The cells were then washed twice with cold HBSS-HEPES buffer and lysed to release the intracellular radiotracer by adding 200 μL 1M NaOH. Lysates were transferred to strip tubes and quantified using a gamma counter.

Data set [5] deals with Hela-YFP-IS cells. Description: Non-radioactive YFP-H148Q/I152L in vitro uptake assay. It counts as cell-based. An excerpt: FIG. 11 contains graphs plotting the relative fluorescence Hela-YFP-IS cells expressing no NIS (i) or the indicated mutant NIS (ii-viii) after treatment with I^−, ReO4^−, BF4^−, and ClO4^−. These graphs show the concentration dependence of I^−, ReO4^−, BF4^−, and ClO4^− induced changes in YFP-H148Q/I152L fluorescence in Hela-YFP-IS cells expressing the indicated NIS mutants.
Using an anti-HA-tag-Alexa-Fluor-647 monoclonal antibody, cells expressing the NIS mutants on the cell surface were labeled and quantified using flow cytometry. […] A non-radioactive YFP-H148Q/I152L in vitro uptake assay was used to monitor uptake of NIS substrates: […], […], BF4^−, and ClO4^−. The NIS mutants were co-expressed with YFP-H148Q/I152L, which decreased in fluorescence following an interaction with halides. […] This was particularly so at the lowest substrate concentrations, which are of clinical relevance as radiotracers used for imaging are administered to animals and humans in trace amounts. At 1-5 μM concentrations of substrate, NIS-Q72N transported less iodide but more ClO4^− into the cells.

Where [6] appears, read: 1-5 μM concentrations of substrate, YFP-H148Q/I152L fluorescence.

Where a chain is given by its changes, count along the chain named. Names may count otherwise. “Also recorded” adds a separate entry of the source.

On to `[O]=[99Tc](=[O])(=[O])[O-]` [^99mTc, ^99mTc-pertechneate], for which, in data set [1], the “Accumulation in BXPC-3-hNIS tumor cells” value was “accumulate both isotopes to similar concentrations” and the “Organ that preferentially accumulates the isotope” value is recorded as “stomach preferentially accumulates”.

Take `[125I-].[Na+]` [^125I, ^125I sodium iodide]: in data set [1], the “Accumulation in BXPC-3-hNIS tumor cells” value is “accumulate both isotopes to similar concentrations” and the “Organ that preferentially accumulates the isotope” value is reported as “thyroid preferentially accumulates”.

Turning to `O=S(=O)([O-])[O-].[Ba+2]` [barium sulfate], in data set [2], the “Isotope signals from the stomach” value is listed as “reduced isotope signals from the stomach”.

As for `[O-][Cl+3]([O-])([O-])O` [perchlorate], the “Efficiency of concentration in NIS expressing cells compared to iodide anions (less efficiently)” value in data set [3] is given as 10 fold.

B1: NIS-93E: mutant human sodium iodide symporter polypeptide, human NIS-93E (SEQ ID NO:1) (protein, listed as Homo sapiens)
chain: MEAVETGERPTFGAWDYGVFALMLLVSTGIGLWVGLARGGQRSAEDFFTGGRRLAALPVGLSLSASFMSAVQVLGVPSEAYRYGLKFLWMCLEQLLNSVLTALLFMPVFYRLGLTSTYEYLEMRFSRAVRLCGTLQYIVATMLYTGIVIYAPALILNQVTGLDIWASLLSTGIICTFYTAVGGMKAVVWTDVFQVVVMLSGFWVVLARGVMLVGGPRQVLTLAQNHSRINLMDFNPDPRSRYTFWTFVVGGTLVWLSMYGVNQAQVQRYVACRTEKQAKLALLINQVGLFLIVSSAACCGIVMFVFYTDCDPLLLGRISAPDQYMPLLVLDIFEDLPGVPGLFLACAYSGTLSTASTSINAMAAVTVEDLIKPRLRSLAPRKLVIISKGLSLIYGSACLTVAALSSLLGGGVLQGSFTVMGVISGPLLGAFILGMFLPACNTPGVLAGLGAGLALSLWVALGATLYPPSEQTMRVLPSSAARCVALSVNASGLLDPALLPANDSSRAPSSGMDASRPALADSFYAISYLYYGALGTLTTVLCGALISCLTGPTKRSTLAPGLLWWDLARQTASVAPKEEVAILDDNLVKGPEELPTGNKKPPGFLPTNEDRLFFLGQKELEGAGSWTPCVGHDGGRDQQETNL
For B1, in data set [4], the “Efficiency of concentrating iodide relative to TcO4” value is “concentrate iodide with greater efficiency than TcO4”, the “Uptake of pertechnetate (Technetium-99m)” value is “minimal or no uptake of pertechnetate; also recorded: not pertechnetate” and the “Uptake of radioiodide (Iodine-125)” value is on record as “can uptake radioiodide; also recorded: capable of up-taking radioiodide”. Further, the “Concentration of Iodine-125 uptake in tumor cells as compared to non-mutated NIS (NIS WT)” value in data set [4] (FIGS. 1A and 1B) is “decrease the concentration of Iodine-125 uptake”. In addition, in data set [4] (listed as NIS-G93E), the “Uptake of pertechnetate (Technetium-99m)” value was “not Technetium-99m” and the “Uptake of radioiodide (Iodine-125)” value is recorded as “transport selectively Iodine-125; also recorded: selectively transports Iodine-125”.

B2: NIS-Q72N: human NIS with Q72 mutated to N, N-terminal HA-tag (protein, UniProt Q92911 1-643, looked up, variant Q72N)
Sodium/iodide cotransporter: B1 chain with Q72N, E93G
modifications: N-terminal HA tag
As for B2, in data set [5] (setting [6]), the “ClO4- transported into the cells compared to wild-type NIS” value is on record as “more ClO4^−” and the “Iodide transported into the cells compared to wild-type NIS” value is given as “less iodide”. For the same molecule, in data set [5] (I-, ReO4-, BF4-, ClO4-, FIGS. 11 and 12), the “Substrate transport profile compared to wild-type NIS” value is listed as “altered substrate transport profile”.

B3: wild-type human NIS polypeptide: wild-type human sodium iodide symporter polypeptide (protein, UniProt Q92911 1-643, looked up)
Sodium/iodide cotransporter: B1 chain with E93G
As to B3, in data set [4], the “Uptake of pertechnetate (Technetium-99m)” value is given as “Substantial uptake” and the “Uptake of radioiodide (Iodine-125)” value was “Substantial uptake”.
